Source: patent publication US20030138839A1

Biological target: human MDM2 (human) (UniProt Q00987)
Experiment: cell-based or functional assay

Chain of human MDM2 (human) (Q00987 whole entry): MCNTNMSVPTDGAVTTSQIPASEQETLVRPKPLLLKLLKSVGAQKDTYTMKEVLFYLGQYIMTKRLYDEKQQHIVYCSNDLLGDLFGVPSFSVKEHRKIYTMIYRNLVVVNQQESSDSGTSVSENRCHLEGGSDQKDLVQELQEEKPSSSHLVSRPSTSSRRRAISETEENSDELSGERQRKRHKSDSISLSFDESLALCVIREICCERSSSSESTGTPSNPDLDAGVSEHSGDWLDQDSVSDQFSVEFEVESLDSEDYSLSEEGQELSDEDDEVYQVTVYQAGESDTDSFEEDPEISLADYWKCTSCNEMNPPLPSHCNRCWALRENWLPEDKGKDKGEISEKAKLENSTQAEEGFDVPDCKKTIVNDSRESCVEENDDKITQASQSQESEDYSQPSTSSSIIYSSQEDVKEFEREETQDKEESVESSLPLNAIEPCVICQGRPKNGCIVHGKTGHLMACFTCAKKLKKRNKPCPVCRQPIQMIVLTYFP

reduction of the p53 level expressed from a transfected construct in Saos-2 cells (Western blot, relative to alpha-tubulin) [%]	MDM2 half-life after cycloheximide (Western blot); approximately 15 min without TSG101 co-expression [min]	Substance
70		HA-tagged human TSG101
	28	human TSG101 protein
